From patent US20240190920A1 (SHENZHEN RESEARCH INSTITUTE OF THE HONG KONG POLYTECHNIC …, published 2024)
Bridge positions count the residues as written; N and C are the ends. Square brackets hold non-standard residues; d marks the D form. R8 = C=CCCCCCC[C@@](C)(N)C(=O)O; S5 = C=CCCC[C@](C)(N)C(=O)O

B1: i7-01s-30 (Ac-[Tat]-RLLQ(R8)LKTVLK(S5)RSV-NH2) (peptide)
peptide: Ac-YGRKKRRQRRRRLLQ[R8]LKTVLK[S5]RSV-NH2
modifications: staple 16-23
SMILES: CC(=O)N[C@@H](Cc1ccc(O)cc1)C(=O)NCC(=O)N[C@@H](CCCNC(=N)N)C(=O)N[C@@H](CCCCN)C(=O)N[C@@H](CCCCN)C(=O)N[C@@H](CCCNC(=N)N)C(=O)N[C@@H](CCCNC(=N)N)C(=O)N[C@@H](CCC(N)=O)C(=O)N[C@@H](CCCNC(=N)N)C(=O)N[C@@H](CCCNC(=N)N)C(=O)N[C@@H](CCCNC(=N)N)C(=O)N[C@@H](CCCNC(=N)N)C(=O)N[C@@H](CC(C)C)C(=O)N[C@@H](CC(C)C)C(=O)N[C@@H](CCC(N)=O)C(=O)N[C@]1(C)CCCCCCC=CCCC[C@@](C)(C(=O)N[C@@H](CCCNC(=N)N)C(=O)N[C@@H](CO)C(=O)N[C@H](C(N)=O)C(C)C)NC(=O)[C@H](CCCCN)NC(=O)[C@H](CC(C)C)NC(=O)[C@H](C(C)C)NC(=O)[C@H]([C@@H](C)O)NC(=O)[C@H](CCCCN)NC(=O)[C@H](CC(C)C)NC1=O
B2: i7-01s-34 (Ac-[Tat]-RFIQ(R8)LEVVIK(S5)RSV-NH2) (peptide)
peptide: Ac-YGRKKRRQRRRRFIQ[R8]LEVVIK[S5]RSV-NH2
modifications: staple 16-23
SMILES: CC[C@H](C)[C@H](NC(=O)[C@H](Cc1ccccc1)NC(=O)[C@H](CCCNC(=N)N)NC(=O)[C@H](CCCNC(=N)N)NC(=O)[C@H](CCCNC(=N)N)NC(=O)[C@H](CCCNC(=N)N)NC(=O)[C@H](CCC(N)=O)NC(=O)[C@H](CCCNC(=N)N)NC(=O)[C@H](CCCNC(=N)N)NC(=O)[C@H](CCCCN)NC(=O)[C@H](CCCCN)NC(=O)[C@H](CCCNC(=N)N)NC(=O)CNC(=O)[C@H](Cc1ccc(O)cc1)NC(C)=O)C(=O)N[C@@H](CCC(N)=O)C(=O)N[C@]1(C)CCCCCCC=CCCC[C@@](C)(C(=O)N[C@@H](CCCNC(=N)N)C(=O)N[C@@H](CO)C(=O)N[C@H](C(N)=O)C(C)C)NC(=O)[C@H](CCCCN)NC(=O)[C@H]([C@@H](C)CC)NC(=O)[C@H](C(C)C)NC(=O)[C@H](C(C)C)NC(=O)[C@H](CCC(=O)O)NC(=O)[C@H](CC(C)C)NC1=O
B3: i7-01s-36 (Ac-[Tat]-RLIQ(R8)REDVEK(S5)RKR-NH2) (peptide)
peptide: Ac-YGRKKRRQRRRRLIQ[R8]REDVEK[S5]RKR-NH2
modifications: staple 16-23
SMILES: CC[C@H](C)[C@H](NC(=O)[C@H](CC(C)C)NC(=O)[C@H](CCCNC(=N)N)NC(=O)[C@H](CCCNC(=N)N)NC(=O)[C@H](CCCNC(=N)N)NC(=O)[C@H](CCCNC(=N)N)NC(=O)[C@H](CCC(N)=O)NC(=O)[C@H](CCCNC(=N)N)NC(=O)[C@H](CCCNC(=N)N)NC(=O)[C@H](CCCCN)NC(=O)[C@H](CCCCN)NC(=O)[C@H](CCCNC(=N)N)NC(=O)CNC(=O)[C@H](Cc1ccc(O)cc1)NC(C)=O)C(=O)N[C@@H](CCC(N)=O)C(=O)N[C@]1(C)CCCCCCC=CCCC[C@@](C)(C(=O)N[C@@H](CCCNC(=N)N)C(=O)N[C@@H](CCCCN)C(=O)N[C@@H](CCCNC(=N)N)C(N)=O)NC(=O)[C@H](CCCCN)NC(=O)[C@H](CCC(=O)O)NC(=O)[C@H](C(C)C)NC(=O)[C@H](CC(=O)O)NC(=O)[C@H](CCC(=O)O)NC(=O)[C@H](CCCNC(=N)N)NC1=O

These binders were tested against T1, Beclin 1 coiled coil domain (human Beclin 1, residues 176-268) (human, UniProt Q14457 176-268) (assay: ITC, peptide titrated into Beclin 1 coiled coil domain, 25 C).
T1 construct: range 176-268; also called Beclin 1 coiled coil domain protein
T1 sequence (Q14457 176-268 limits assumed): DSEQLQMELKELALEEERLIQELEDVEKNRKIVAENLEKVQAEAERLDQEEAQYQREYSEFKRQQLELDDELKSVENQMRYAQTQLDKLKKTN
B1: no binding.
B2: no binding.
B3: no binding.
